Measurements taken from publication PMC2766932 (Biochemistry, 2009).

T1: MBP-3 D262A
T1 chain: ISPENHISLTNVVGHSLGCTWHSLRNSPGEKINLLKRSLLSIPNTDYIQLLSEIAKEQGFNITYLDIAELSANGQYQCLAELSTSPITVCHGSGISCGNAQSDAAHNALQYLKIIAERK

T2: MBP-3 Q243A
T2 chain: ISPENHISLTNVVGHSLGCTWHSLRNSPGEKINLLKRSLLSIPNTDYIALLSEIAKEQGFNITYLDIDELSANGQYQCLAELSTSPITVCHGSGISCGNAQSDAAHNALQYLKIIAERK


Key:
Experiment in all cases: pull-down
MBP-3 D260A = target: MBP-3 D260A
MBP-3 S287A = target: MBP-3 S287A
MBP-3 S246D = target: MBP-3 S246D
MBP-3 S287D = target: MBP-3 S287D
MBP-3 S279A = target: MBP-3 S279A
MBP-3 D262A = target: T1, MBP-3 D262A
MBP-3 Q243A = target: T2, MBP-3 Q243A

Row | Molecule | PKR bound, percent of wt MBP-3 (MBP-3 D260A) | PKR bound, percent of wt MBP-3 (MBP-3 S287A) | PKR bound, percent of wt MBP-3 (MBP-3 S246D) | PKR bound, percent of wt MBP-3 (MBP-3 S287D) | PKR bound, percent of wt MBP-3 (MBP-3 S279A) | PKR bound, percent of wt MBP-3 (MBP-3 D262A) | PKR bound, percent of wt MBP-3 (MBP-3 Q243A)
1 | PKR (K296R)-FLAG (from UniProt P19525 1-551) (enzyme) | 63% | 59% | 100% | 95% | 23% | – | –
2 | PKR (K296R)-FLAG (enzyme, UniProt P19525 1-551, looked up) MAGDLSAGFFMEELNTYRQKQGVVLKYQELPNSGPPHDRRFTFQVIIDGREFPEGEGRSKKEAKNAAAKLAVEILNKEKKAVSPLLLTTTNSSEGLSMGNYIGLINRIAQKKRLTVNYEQCASGVHGPEGFHYKCKMGQKEYSIGTGSTKQEAKQLAAKLAYLQILSEETSVKSDYLSSGSFATTCESQSNSLVTSTLASESSSEGDFSADTSEINSNSDSLNSSSLLMNGLRNNQRKAKRSLAPRFDLPDMKETKYTVDKRFGMDFKEIELIGSGGFGQVFKAKHRIDGKTYVIRRVKYNNEKAEREVKALAKLDHVNIVHYNGCWDGFDYDPETSDDSLESSDYDPENSKNSSRSKTKCLFIQMEFCDKGTLEQWIEKRRGEKLDKVLALELFEQITKGVDYIHSKKLIHRDLKPSNIFLVDTKQVKIGDFGLVTSLKNDGKRTRSKGTLRYMSPEQISSQDYGKEVDLYALGLILAELLHVCDTAFETSKFFTDLRDGIISDIFDKKEKTLLQKLLSKKPEDRPNTSEILRTLTVWKKSPEKNERHTC | – | – | – | – | – | 2% | 9%
